Earlier results in US20260201008A1, “SECRETIN-DERIVED GLP1R SELECTIVE AGONISTS” (GUBRA A/S, priority 2023, published 2026).
pEC50: −log10 of the molar value. Square brackets hold non-standard residues; d marks the D form. Ends that are not written are not given here. Aib = CC(C)(N)C(=O)O

Experiments:
GLP1R = GLP1R (Homo sapiens, UniProt P43220); settings: prior art value; cited from earlier work
SCTR = SCTR (Homo sapiens, UniProt P47872); settings: prior art value; cited from earlier work
SCTR, sequence (P47872 23-440, species assumed): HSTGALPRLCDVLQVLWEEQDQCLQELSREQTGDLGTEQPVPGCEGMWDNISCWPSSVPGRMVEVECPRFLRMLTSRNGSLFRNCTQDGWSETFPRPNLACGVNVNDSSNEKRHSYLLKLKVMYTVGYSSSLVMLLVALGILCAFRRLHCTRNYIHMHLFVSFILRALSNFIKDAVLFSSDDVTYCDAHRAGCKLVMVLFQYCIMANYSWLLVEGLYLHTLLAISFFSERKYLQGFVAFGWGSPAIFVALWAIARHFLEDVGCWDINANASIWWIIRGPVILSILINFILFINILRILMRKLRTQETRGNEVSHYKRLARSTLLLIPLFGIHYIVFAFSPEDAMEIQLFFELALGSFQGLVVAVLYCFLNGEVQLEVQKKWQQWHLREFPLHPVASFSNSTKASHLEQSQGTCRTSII

GLP1R, sequence (P43220 24-463, species assumed): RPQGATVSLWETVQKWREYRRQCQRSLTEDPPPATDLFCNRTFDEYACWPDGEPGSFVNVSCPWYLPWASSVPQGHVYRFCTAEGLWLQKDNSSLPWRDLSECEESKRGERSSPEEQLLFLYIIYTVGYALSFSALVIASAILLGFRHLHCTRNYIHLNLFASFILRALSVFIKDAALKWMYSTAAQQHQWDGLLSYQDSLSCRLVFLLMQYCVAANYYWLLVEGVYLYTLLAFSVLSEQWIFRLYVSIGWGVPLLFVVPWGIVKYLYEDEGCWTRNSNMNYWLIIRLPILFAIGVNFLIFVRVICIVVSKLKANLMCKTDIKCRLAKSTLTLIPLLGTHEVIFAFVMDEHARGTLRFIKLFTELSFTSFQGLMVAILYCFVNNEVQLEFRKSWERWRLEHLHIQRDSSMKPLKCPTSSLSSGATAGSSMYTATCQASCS

H-Aib-EGTFTSDLSRLLEGAALQRFIQWLV (H[Aib]EGTFTSDLSRLLEGAALQRFIQWLV-NH2; N-terminus assumed; SMILES CC[C@H](C)[C@H](NC(=O)[C@H](Cc1ccccc1)NC(=O)[C@H](CCCNC(=N)N)NC(=O)[C@H](CCC(N)=O)NC(=O)[C@H](CC(C)C)NC(=O)[C@H](C)NC(=O)[C@H](C)NC(=O)CNC(=O)[C@H](CCC(=O)O)NC(=O)[C@H](CC(C)C)NC(=O)[C@H](CC(C)C)NC(=O)[C@H](CCCNC(=N)N)NC(=O)[C@H](CO)NC(=O)[C@H](CC(C)C)NC(=O)[C@H](CC(=O)O)NC(=O)[C@H](CO)NC(=O)[C@@H](NC(=O)[C@H](Cc1ccccc1)NC(=O)[C@@H](NC(=O)CNC(=O)[C@H](CCC(=O)O)NC(=O)C(C)(C)NC(=O)[C@@H](N)Cc1c[nH]cn1)[C@@H](C)O)[C@@H](C)O)C(=O)N[C@@H](CCC(N)=O)C(=O)N[C@@H](Cc1c[nH]c2ccccc12)C(=O)N[C@@H](CC(C)C)C(=O)N[C@H](C(N)=O)C(C)C) [SEQ ID NO: 216, prior art SCTR/GLP1R co-agonist (Witteloostuijn, 2017)]
pEC50 (GLP1R): 9.92
pEC50 (SCTR): 8.89
